Experimental data from publication doi:10.1101/2021.11.25.470006 (bioRxiv, 2021).

Biological target: T1, Smc6 (Walker B mutant E1048Q) (S. cerevisiae, UniProt Q12749 1-1114, E1048Q, BS3-crosslinked within the holo-complex)
T1 sequence: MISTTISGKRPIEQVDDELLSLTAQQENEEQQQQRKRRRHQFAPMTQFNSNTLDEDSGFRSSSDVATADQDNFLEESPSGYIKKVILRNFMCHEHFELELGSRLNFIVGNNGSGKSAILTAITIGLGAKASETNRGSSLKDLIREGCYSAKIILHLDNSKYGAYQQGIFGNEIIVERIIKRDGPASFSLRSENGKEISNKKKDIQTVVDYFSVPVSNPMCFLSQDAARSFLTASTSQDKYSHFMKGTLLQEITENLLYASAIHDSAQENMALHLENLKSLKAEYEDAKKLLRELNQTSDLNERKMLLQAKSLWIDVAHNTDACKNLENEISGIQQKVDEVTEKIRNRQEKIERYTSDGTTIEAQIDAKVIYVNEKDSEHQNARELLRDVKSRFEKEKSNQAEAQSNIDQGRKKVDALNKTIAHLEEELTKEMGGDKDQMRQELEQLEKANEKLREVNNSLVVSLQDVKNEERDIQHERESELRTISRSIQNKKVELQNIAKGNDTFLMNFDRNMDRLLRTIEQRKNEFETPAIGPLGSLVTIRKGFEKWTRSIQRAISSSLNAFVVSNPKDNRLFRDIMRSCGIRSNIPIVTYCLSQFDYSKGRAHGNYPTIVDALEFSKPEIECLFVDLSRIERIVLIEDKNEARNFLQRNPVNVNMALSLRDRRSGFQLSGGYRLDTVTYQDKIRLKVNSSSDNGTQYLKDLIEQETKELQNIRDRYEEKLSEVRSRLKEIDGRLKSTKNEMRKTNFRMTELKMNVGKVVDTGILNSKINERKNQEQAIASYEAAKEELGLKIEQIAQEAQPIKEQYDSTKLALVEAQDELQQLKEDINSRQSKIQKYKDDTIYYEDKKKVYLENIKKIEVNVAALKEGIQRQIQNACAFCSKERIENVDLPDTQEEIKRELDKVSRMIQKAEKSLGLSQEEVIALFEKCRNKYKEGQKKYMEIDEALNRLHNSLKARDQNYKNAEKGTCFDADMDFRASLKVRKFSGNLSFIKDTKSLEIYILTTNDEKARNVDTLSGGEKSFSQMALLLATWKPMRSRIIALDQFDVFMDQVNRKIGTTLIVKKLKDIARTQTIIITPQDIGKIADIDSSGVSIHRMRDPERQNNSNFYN
Test: cryo-EM structure

B1: Smc5 (Walker B mutant E1015Q) (natural protein, S. cerevisiae)
chain: MTSLIDLGRYVERTHHGEDTEPRSKRVKIAKPDLSSFQPGSIIKIRLQDFVTYTLTEFNLSPSLNMIIGPNGSGKSTFVCAVCLGLAGKPEYIGRSKKVEDFIKNGQDVSKIEITLKNSPNVTDIEYIDARDETIKITRIITRSKRRSDYLINDYQVSESVVKTLVAQLNIQLDNLCQFLSQERVEEFARLKSVKLLVETIRSIDASLLDVLDELRELQGNEQSLQKDLDFKKAKIVHLRQESDKLRKSVESLRDFQNKKGEIELHSQLLPYVKVKDHKEKLNIYKEEYERAKANLRAILKDKKPFANTKKTLENQVEELTEKCSLKTDEFLKAKEKINEIFEKLNTIRDEVIKKKNQNEYYRGRTKKLQATIISTKEDFLRSQEILAQTHLPEKSVFEDIDIKRKEIINKEGEIRDLISEIDAKANAINHEMRSIQRQAESKTKSLTTTDKIGILNQDQDLKEVRDAVLMVREHPEMKDKILEPPIMTVSAINAQFAAYLAQCVDYNTSKALTVVDSDSYKLFANPILDKFKVNLRELSSADTTPPVPAETVRDLGFEGYLSDFITGDKRVMKMLCQTSKIHTIPVSRRELTPAQIKKLITPRPNGKILFKRIIHGNRLVDIKQSAYGSKQVFPTDVSIKQTNFYQGSIMSNEQKIRIENEIINLKNEYNDRKSTLDALSNQKSGYRHELSELASKNDDINREAHQLNEIRKKYTMRKSTIETLREKLDQLKREARKDVSQKIKDIDDQIQQLLLKQRHLLSKMASSMKSLKNCQKELISTQILQFEAQNMDVSMNDVIGFFNEREADLKSQYEDKKKFVKEMRDTPEFQSWMREIRSYDQDTKEKLNKVAEKYEEEGNFNLSFVQDVLDKLESEIAMVNHDESAVTILDQVTAELRELEHTVPQQSKDLETIKAKLKEDHAVLEPKLDDIVSKISARFARLFNNVGSAGAVRLEKPKDYAEWKIEIMVKFRDNAPLKKLDSHTQSGGERAVSTVLYMIALQEFTSAPFRVVDQINQGMDSRNERIVHKAMVENACAENTSQYFLITPKLLTGLHYHEKMRIHCVMAGSWIPNPSEDPKMIHFGETSNYSFD
modifications: BS3-crosslinked within the holo-complex
  binding result: binds
